Non-standard residues stand in square brackets, D forms with d. No end group written: not given here.
Target: full length PCNA's binding partners
Experiment: cell-based or functional assay

Binder	% cancer cell death, U937 cells, 30 µM peptide, 24 h, flow cytometry [%]	further results
RRRRRRRRRCCLGIPAQEY [R9-L130A]	45	
RRRRRRRRRCCLGIPEQAY [R9-L132A]	88	
RRRRRRRRRCCLGIPEAEY [R9-L131A]	93	
RRRRRRRRRCCLGIAEQEY [R9-L129A]	80	
[dR][dR][dR][dR][dR][dR][dR][dR][dR]CCLGIPEQEY (cysteine pairing not given here) [R9-caPep (D-nonaarginine linked caPeptide, …)]	43	% Dead Cells, MCF 7 (breast cancer) cells, 50 µM R9-caPeptide, 48 h, flow cytometry: 91.5%; % Dead Cells, MCF 10A (non-malignant) breast cells, 50 µM R9-caPeptide, 48 h, flow cytometry: 18.2%; apoptotic cells, U937 cells, 50 uM R9-caPep: 93%
RRRRRRRRRCCLAIPEQEY [R9-L127A]	47	
RRRRRRRRRCCLGIPEQEA [R9-L133A]	7	
RRRRRRRRRCCLGAPEQEY [R9-L128A]	21	
RRRRRRRRRCCAGIPEQEY [R9-L126A]	8	

From patent US20110076342A1
